Reference: the Immune Epitope Database (IEDB)

Tests used:
HLA-B*40:01 [1] = test: IEDB peptide-MHC binding, purified MHC/competitive/fluorescence; filed as Kd, often an IC50 or EC50 that approximates it; ≥ and ≤ were set here for values at or beyond the usual limits of such assays
HLA-B*15:01 [2] = test: as above; conditions: source organism: Escherichia coli O139:H28 str. E24377A
HLA-B*45:06 = test: as above; conditions: source organism: Yersinia pestis Nepal516
HLA-B*83:01 = test: as above; conditions: source organism: Yersinia pestis Nepal516
HLA-B*15:42 = test: as above; conditions: source organism: Yersinia pestis Nepal516
HLA-B*57:01 [3] = test: IEDB peptide-MHC binding, purified MHC/competitive/radioactivity; filed as Kd, often an IC50 or EC50 that approximates it; ≥ and ≤ were set here for values at or beyond the usual limits of such assays
HLA-B*58:01 [4] = test: as above
HLA-A*68:02 [5] = test: as above
HLA-A*01:01 [6] = test: as above
HLA-B*53:01 = test: as above; conditions: source organism: Dengue virus 4 Philippines/H241/1956
HLA-B*51:01 [7] = test: IEDB peptide-MHC binding, purified MHC/direct/fluorescence; filed as Kd, often an IC50 or EC50 that approximates it; ≥ and ≤ were set here for values at or beyond the usual limits of such assays
HLA-B*07:02 = test: as above
HLA-B*18:01 = test: as above; conditions: source organism: Orthohantavirus andesense
HLA-A*68:02 [8] = test: as above; conditions: source organism: Orthohantavirus andesense
HLA-A*01:01 [9] = test: as above; conditions: source organism: Orthohantavirus andesense
HLA-A*02:01 = test: as above; conditions: source organism: Orthohantavirus andesense
HLA-B*57:01 [10] = test: as above; conditions: source organism: Orthohantavirus andesense
HLA-A*02:12 = test: as above; conditions: source organism: Orthohantavirus andesense
HLA-A*29:02 = test: as above; conditions: source organism: Orthohantavirus andesense
HLA-B*48:01 = test: as above; conditions: source organism: Orthohantavirus andesense
HLA-B*40:01 [11] = test: as above; conditions: source organism: Orthohantavirus andesense
HLA-B*15:01 [12] = test: as above; conditions: source organism: Orthohantavirus andesense
HLA-A*11:01 = test: as above; conditions: source organism: Orthohantavirus andesense
HLA-B*27:05 = test: as above; conditions: source organism: Orthohantavirus andesense
HLA-B*58:01 [13] = test: as above; conditions: source organism: Orthohantavirus andesense
HLA-A*69:01 = test: as above; conditions: source organism: Orthohantavirus andesense
HLA-B*08:01 = test: as above; conditions: source organism: Orthohantavirus andesense
HLA-A*03:01 = test: as above; conditions: source organism: Orthohantavirus andesense
HLA-B*46:01 = test: as above; conditions: source organism: Orthohantavirus andesense
HLA-A*31:01 = test: as above; conditions: source organism: Orthohantavirus andesense
HLA-B*27:03 = test: IEDB peptide-MHC binding, purified MHC/competitive/fluorescence; filed as Kd, often an IC50 or EC50 that approximates it; ≥ and ≤ were set here for values at or beyond the usual limits of such assays; conditions: source organism: Orthohantavirus andesense
HLA-A*26:01 = test: as above; conditions: source organism: Orthohantavirus andesense
HLA-B*15:17 = test: as above; conditions: source organism: Orthohantavirus andesense
HLA-B*51:01 [14] = test: as above; conditions: source organism: Orthohantavirus andesense
HLA-B*39:01 = test: as above; conditions: source organism: Orthohantavirus andesense
[15] = source organism: Dengue virus 4 Philippines/H241/1956
[16] = source organism: Dengue virus 3 Martinique/1243/1999
[17] = source organism: Brucella abortus
[18] = source organism: Dengue virus 1 Brazil/97-11/1997

AEIEDLIFL gave a Kd (HLA-B*40:01 [1]; source organism: Influenza A virus (A/swine/Italy/1509-6/97(H1N1))) of 0.0005 µM.
AENHFLVGL showed a Kd (HLA-B*40:01 [1]; source organism: Escherichia coli O139:H28 str. E24377A) of 0.0025 µM and a Kd (HLA-B*15:01 [2]) of at least 20 µM.
For AEYLYADGI, the Kd (HLA-B*45:06) was at least 5 µM, the Kd (HLA-B*40:01 [1]; source organism: Yersinia pestis Nepal516) was 0.0043 µM and the Kd (HLA-B*83:01) was at least 5 µM. For the same sequence, the Kd (HLA-B*15:42) was at least 5 µM.
Sequence ASGKLVTQW has a Kd (HLA-B*57:01 [3]; [15]) of 0.137 µM and a Kd (HLA-B*58:01 [4]; [15]) of 0.0157 µM.
Work on ESSKNQTWQI yielded a Kd (HLA-A*68:02 [5]; [15]) of 0.701 µM, a Kd (HLA-A*01:01 [6]; [15]) of at least 70.4 µM and a Kd (HLA-B*57:01 [3]; [15]) of at least 23 µM. It also gave a Kd (HLA-B*58:01 [4]; [15]) of 1.59 µM.
ESWEEVPYLG was tested, and the Kd (HLA-B*58:01 [4]; source organism: Dengue virus 2 Jamaica/1409/1983) was 0.589 µM.
GADTSEVHW was tested, and the Kd (HLA-B*57:01 [3]; [15]) was 0.987 µM and the Kd (HLA-B*58:01 [4]; [15]) was 0.0663 µM.
With GTSLTQKVVI the Kd (HLA-B*57:01 [3]; [16]) was 2.3 µM and the Kd (HLA-B*58:01 [4]; [16]) was 0.194 µM.
For IAVASGLLW, the Kd (HLA-B*57:01 [3]; [15]) was 0.00221 µM, the Kd (HLA-B*53:01) was 0.0312 µM and the Kd (HLA-B*58:01 [4]; [15]) was 0.000661 µM.
LPAIIRPSF gave a Kd (HLA-B*51:01 [7]; [17]) of at least 20 µM and a Kd (HLA-B*07:02; [17]) of 0.104 µM.
LTGGVTLFF was tested, and the Kd (HLA-A*01:01 [6]; [18]) was 18.9 µM and the Kd (HLA-B*58:01 [4]; [18]) was 0.107 µM.
For MPSSYAAGM, the Kd (HLA-B*51:01 [7]; source organism: Giardia lamblia ATCC 50803) was 0.863 µM.
In the case of QELSDAPFL, the Kd (HLA-B*40:01 [1]; source organism: Influenza A virus (A/Hokkaido/20/89(H3N2))) is reported as 0.002 µM.
Work on QTQRSGVLW yielded a Kd (HLA-B*57:01 [3]; [16]) of 0.0187 µM and a Kd (HLA-B*58:01 [4]; [16]) of 0.00147 µM.
Work on SASSMINGVV yielded a Kd (HLA-A*68:02 [5]; [16]) of 0.165 µM, a Kd (HLA-B*57:01 [3]; [16]) of 1.99 µM and a Kd (HLA-B*58:01 [4]; [16]) of 6.38 µM.
For SIKFKRKLM, the Kd (HLA-B*18:01) was at least 20 µM, the Kd (HLA-A*68:02 [8]) was at least 20 µM and the Kd (HLA-A*01:01 [9]) was at least 20 µM. It also gave a Kd (HLA-A*02:01) of at least 20 µM, a Kd (HLA-B*57:01 [10]) of at least 20 µM and a Kd (HLA-A*02:12) of at least 20 µM. It also gave a Kd (HLA-A*29:02) of at least 20 µM, a Kd (HLA-B*48:01) of at least 20 µM and a Kd (HLA-B*40:01 [11]) of at least 20 µM. For the same sequence, the Kd (HLA-B*15:01 [12]) was at least 20 µM, the Kd (HLA-A*11:01) was at least 20 µM and the Kd (HLA-B*27:05) was at least 20 µM. For the same sequence, the Kd (HLA-B*58:01 [13]) was at least 20 µM, the Kd (HLA-A*69:01) was at least 20 µM and the Kd (HLA-B*08:01) was at least 5 µM. For the same sequence, the Kd (HLA-B*07:02; source organism: Orthohantavirus andesense) was at least 20 µM, the Kd (HLA-A*03:01) was at least 20 µM and the Kd (HLA-B*46:01) was at least 20 µM. For the same sequence, the Kd (HLA-A*31:01) was at least 20 µM, the Kd (HLA-B*27:03) was at least 20 µM and the Kd (HLA-A*26:01) was at least 20 µM. The Kd (HLA-B*15:17) was at least 20 µM, the Kd (HLA-B*51:01 [14]) was at least 20 µM and the Kd (HLA-B*39:01) was at least 20 µM.
In the case of TEAKIISLL, the Kd (HLA-B*40:01 [1]; source organism: Shigella flexneri 5 str. 8401) is reported as 0.0081 µM.
VASAAQRRGR was tested, and the Kd (HLA-B*58:01 [4]; [18]) was 0.16 µM.
